Measured values published in US20260167693A1 (ANGELES THERAPEUTICS, published 2026).
Positions count from the first letter of the chain named. Names and notes keep the numbering of the source. Values belong to the binder of their own block, whether it stands above or below them.

Columns and labels:
[1] = biological target: T1, human CD19 (human, UniProt P15391 20-556); experiment: cell-based or functional assay
T1 sequence (looked up): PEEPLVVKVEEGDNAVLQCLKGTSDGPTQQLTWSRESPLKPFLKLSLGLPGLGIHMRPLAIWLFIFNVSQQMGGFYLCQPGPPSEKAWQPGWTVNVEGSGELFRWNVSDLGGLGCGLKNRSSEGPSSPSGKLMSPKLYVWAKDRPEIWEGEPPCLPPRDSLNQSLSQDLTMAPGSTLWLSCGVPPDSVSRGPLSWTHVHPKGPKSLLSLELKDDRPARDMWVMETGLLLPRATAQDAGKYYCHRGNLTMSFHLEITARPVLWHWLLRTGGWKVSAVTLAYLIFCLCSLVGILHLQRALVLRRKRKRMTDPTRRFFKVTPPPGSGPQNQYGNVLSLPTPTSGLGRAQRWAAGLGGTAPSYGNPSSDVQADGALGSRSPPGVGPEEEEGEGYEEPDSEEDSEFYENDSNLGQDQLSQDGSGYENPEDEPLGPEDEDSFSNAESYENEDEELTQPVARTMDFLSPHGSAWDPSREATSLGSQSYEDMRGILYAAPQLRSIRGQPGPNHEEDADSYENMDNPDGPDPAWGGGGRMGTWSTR

[2] = biological target: T1, human CD19; experiment: cell-based or functional assay; remark: listed apart in the source
[3] = biological target: T2, CD19-ECD-GGSG-NLuc-AcV5 (human); experiment: NLuc binding assay, SIR on Jurkat-NFAT-Luc cells
T2 construct: also called CD19-GGSG-NLuc-AcV5; Flag-CD19-GGSG-NLuc-AcV5
T2 chain: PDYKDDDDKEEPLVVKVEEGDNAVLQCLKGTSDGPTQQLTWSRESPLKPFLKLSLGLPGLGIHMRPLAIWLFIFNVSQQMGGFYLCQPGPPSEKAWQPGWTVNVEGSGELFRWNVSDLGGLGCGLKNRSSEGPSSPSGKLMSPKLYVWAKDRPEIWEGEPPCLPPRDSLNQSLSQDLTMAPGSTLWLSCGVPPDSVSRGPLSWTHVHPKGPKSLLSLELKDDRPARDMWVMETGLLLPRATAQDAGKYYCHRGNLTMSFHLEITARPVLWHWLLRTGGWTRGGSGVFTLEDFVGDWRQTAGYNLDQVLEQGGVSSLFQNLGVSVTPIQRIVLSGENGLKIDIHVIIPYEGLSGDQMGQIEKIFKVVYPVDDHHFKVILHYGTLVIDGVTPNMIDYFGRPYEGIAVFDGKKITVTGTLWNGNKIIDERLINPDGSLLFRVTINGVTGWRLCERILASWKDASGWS

[4] = biological target: T2, CD19-ECD-GGSG-NLuc-AcV5; experiment: NLuc binding assay, SIR on Jurkat-NFAT-GFP cells
[5] = biological target: T2, CD19-ECD-GGSG-NLuc-AcV5; experiment: NLuc binding assay, single chain unit in Jurkat-NFAT-GFP cells

NFAT-GFP (%) after co-culture with RAJI cells [1]: 1.35%
B1: CD8SP-hu-FMC65-1-vL-[hTCRb-D59C]-F-P2A-SP-hu-FMC65-1-vH-[hTCRa-T45C] (other)
TCR beta: DVVMTQSPSSLSASVGDRVTITCRASQDISKYLNWYQQKPGKAPKLLIYHTSRLHSGVPSRFSGSGSGTDFTLTISSLQPEDFATYYCQQGNTLPYTFGGGTKVEIKEDLKNVFPPEVAVFEPSEAEISHTQKATLVCLATGFYPDHVELSWWVNGKEVHSGVSTCPQPLKEQPALNDSRYCLSSRLRVSATFWQNPRNHFRCQVQFYGLSENDEWTQDRAKPVTQIVSAEAWGRADCGFTSESYQQGVLSATILYEILLGKATLYAVLVSALVLMAMVKRKDSRG
TCR alpha: QVQLQESGPGLVKPSQTLSLTCTVSGVSLPDYGVSWIRQPPGKGLEWIGVIWGSETTYYNSALKSRVLISVDTSKNQVSLKLSSVTAADTAVYYCARHYYYGGSYAMDYWGQGTTVTVSSIQNPDPAVYQLRDSKSSDKSVCLFTDFDSQTNVSQSKDSDVYICDKTVLDMRSMDFKSNSAVAWSNKSDFACANAFNNSIIPEDTFFPSPESSCDVKLVEKSFETDTNLNFQNLSVIGFRILLLKVAGFNLLMTLRLWSS

NFAT-GFP (%) after co-culture with RAJI cells [1]: 1.99%
B2: CD8SP-hu-FMC65-1-vL-[hTCRb-S17C]-F-P2A-SP-hu-FMC65-1-vH-[hTCRa-Y10C] (other)
TCR beta: B1 TCR beta with S124C, C166D
TCR alpha: B1 TCR alpha with Y129C, C164T

NFAT-GFP (%) after co-culture with RAJI cells [1]: 0.9%
B3: CD8SP-hu-FMC65-1-vL-[hTCRb-S77C]-F-P2A-SP-hu-FMC65-1-vH-[hTCRa-T45C] (other)
TCR beta: B1 TCR beta with C166D, S184C
TCR alpha: B1 TCR alpha

NFAT-GFP (%) after co-culture with RAJI cells [1]: 2.48%
B4: CD8SP-hu-FMC65-1-vL-[hTCRb-E15C]-F-P2A-SP-hu-FMC65-1-vH-[hTCRa-S15C] (other)
TCR beta: B1 TCR beta with E122C, C166D
TCR alpha: B1 TCR alpha with S134C, C164T

NFAT-GFP (%) after overnight co-culture with RAJI cells [2]: 6.77%
B5: CD8SP-pre-TCRa-del48-F-F2A-CD8SP-CD19-hu-mRO05-1-scFv-V5-[hTCRb-S57C-opt]-F-P2A-Pac (other)
chain: TPFPSLAPPIMLLVDGKQQMVVVCLVLDVAPPGLDSPIWFSAGNGSALDAFTYGPSPATDGTWTNLAHLSLPSEELASWEPLVCHTGPGAEGHSRSTQPMHLSGEASTARTCPQEPLRGTPGGALWLGVLRLLLFKLLLFDLLLTCSCLCDPAGPLPSPATTTRLRALGSHRLHPATETGGREATSSPRPQPRDRRWGDTPPGRKPGSPV
TCR beta: DIQMTQSPSSLSASVGDRVTITCKASDHINNWLAWYQQKPGQAPKLLIYGATTLETGVPSRFSGSGSGTDYTLTISSLQPEDFATYYCQQSWNTPWTFGQGTKLEIKRGGGGSGGGGSGGGGSQVQLQQPGAELVKPGASVKMSCKASGYAFSSYWINWMKQKPGQGLEWIGQIYPGDGDTNYNGKFKGRATLTADTSSSTAYMQLSSLTSEDSAVYFCARSITTVVGCAMDYWGQGTSVTVSSGKPIPNPLLGLDSTGSGEDLKNVFPPEVAVFEPSEAEISHTQKATLVCLATGFYPDHVELSWWVNGKEVHSGVCTDPQPLKEQPALNDSRYCLSSRLRVSATFWQNPRNHFRCQVQFYGLSENDEWTQDRAKPVTQIVSAEAWGRADCGFTSESYQQGVLSATILYEILLGKATLYAVLVSALVLMAMVKRKDSRG

NFAT-GFP (%) after overnight co-culture with RAJI cells [2]: 9.55%
B6: CD8SP-V5-[hTCRb-KACIAH]-F-P2A-CD8SP-CD19-hu-mROO5-vL-Gly-Ser-Linker-CD19-hu-mROO5-vH-Myc-[hTCRa-CSDVP]-F-F2A-PAC (other)
TCR beta: GKPIPNPLLGLDSTGSGEDLKNVFPPEVAVFEPSKAEIAHTQKATLVCLATGFYPDHVELSWWVNGKEVHSGVCTDPQPLKEQPALNDSRYCLSSRLRVSATFWQNPRNHFRCQVQFYGLSENDEWTQDRAKPVTQIVSAEAWGRADCGITSASYHQGVLSATILYEILLGKATLYAVLVSALVLMAMVKRKDSRG
TCR alpha: DIQMTQSPSSLSASVGDRVTITCKASDHINNWLAWYQQKPGQAPKLLIYGATTLETGVPSRFSGSGSGTDYTLTISSLQPEDFATYYCQQSWNTPWTFGQGTKLEIKRGGGGSGGGGSGGGGSQVQLQQPGAELVKPGASVKMSCKASGYAFSSYWINWMKQKPGQGLEWIGQIYPGDGDTNYNGKFKGRATLTADTSSSTAYMQLSSLTSEDSAVYFCARSITTVVGCAMDYWGQGTSVTVSSEQKLISEEDGSGIQNPDPAVYQLRDSKSSDKSVCLFTDFDSQTNVSQSKDSDVYITDKCVLDMRSMDFKSNSAVAWSNKSDFACANAFNNSIIPEDTFFPSSDVPCDVKLVEKSFETDTNLNFQNLSVIGFRILLLKVAGFNLLMTLRLWSS

NFAT-GFP (%) after overnight co-culture with RAJI cells [2]: 6.67%
B7: CD8SP-V5-[hTCRb-KACIAH]-F-P2A-CD8SP-hCD19-EUK5-13-vL-Gly-Ser-Linker-hCD19-EUK5-13-vH-Myc-[hTCRa-CSDVP]-F-F2A-PAC (other)
TCR beta: B6 TCR beta
TCR alpha: LPVLTQPPSVSVAPGKTARITCGGNNIGSKSVHWYQQKPGQAPVLVVYDDSDRPSGIPERFSGSNSGNTATLTISRVEAGDEADYYCQVWDSSSDYVVFGGGTKLTVLGGGGSGGGGSGGGGSEVQLVQSGAEVKKPGESLKISCKGSGYSFTSYWIGWVRQMPGKGLEWMGIIYPGDSDTRYSPSFQGQVTISADKSISTAYLQWSSLKASDTAMYYCARQVWGWQGGMYPRSNWWYNLDSWGQGTLVTVSSEQKLISEEDGSGIQNPDPAVYQLRDSKSSDKSVCLFTDFDSQTNVSQSKDSDVYITDKCVLDMRSMDFKSNSAVAWSNKSDFACANAFNNSIIPEDTFFPSSDVPCDVKLVEKSFETDTNLNFQNLSVIGFRILLLKVAGFNLLMTLRLWSS

binding result [3]: no binding
CD19-GGSG-NLuc (RLU) [4]: 768 RLU
B8: CD8SP-FMC63-vL-V5-[hTCRb-WT]-F-P2A-SP-FMC63-vH-Myc-[hTCRa-WT]-F-F2A-PAC (080815-F02)[SEQ ID NO:922] (other)
TCR beta: DIQMTQTTSSLSASLGDRVTISCRASQDISKYLNWYQQKPDGTVKLLIYHTSRLHSGVPSRFSGSGSGTDYSLTISNLEQEDIATYFCQQGNTLPYTFGGGTKLEITGKPIPNPLLGLDSTGSGEDLKNVFPPEVAVFEPSEAEISHTQKATLVCLATGFYPDHVELSWWVNGKEVHSGVSTDPQPLKEQPALNDSRYCLSSRLRVSATFWQNPRNHFRCQVQFYGLSENDEWTQDRAKPVTQIVSAEAWGRADCGFTSESYQQGVLSATILYEILLGKATLYAVLVSALVLMAMVKRKDSRG
TCR alpha: EVKLQESGPGLVAPSQSLSVTCTVSGVSLPDYGVSWIRQPPRKGLEWLGVIWGSETTYYNSALKSRLTIIKDNSKSQVFLKMNSLQTDDTAIYYCAKHYYYGGSYAMDYWGQGTSVTVSSEQKLISEEDGSGIQNPDPAVYQLRDSKSSDKSVCLFTDFDSQTNVSQSKDSDVYITDKTVLDMRSMDFKSNSAVAWSNKSDFACANAFNNSIIPEDTFFPSPESSCDVKLVEKSFETDTNLNFQNLSVIGFRILLLKVAGFNLLMTLRLWSS
notes: SIR with wild-type TCR constant chains; Polyprotein PRT 3157

binding result [5]: no binding
B9: CD8SP-FMC63-vL-V5-[hTCRb-KACIAH]-F-P2A-PAC (other)
TCR beta: B8 TCR beta with E142K, S146A, S181C, F257I, E260A, Q263H
notes: One functional polypeptide unit alone in Jurkat-NFAT-GFP cells; PRT 3148; also called 050216-S08

binding result [5]: no binding
B10: CD8SP-FMC63-vH-MYC-[TCRα-CSDVP]-F-F2A-BlastR (other)
TCR alpha: B8 TCR alpha with T179C, P222S, E223D, S224V, S225P
notes: One functional polypeptide unit alone in Jurkat-NFAT-GFP cells; PRT 3232; also called 041916-A02

NFAT-GFP (%) after overnight co-culture with RAJI cells [2]: 31.6%
B11: CD8SP-CD19-MOR0028-vL-Myc2-[hTCRb-KACIAH]-F-P2A-SP-CD19-MOR0028-vH-Myc4-[hTCRa-CSDVP]-F-F2A-PAC (other)
TCR beta: DIVMTQSPATLSLSPGERATLSCRSSKSLQNVNGNTYLYWFQQKPGQSPQLLIYRMSNLNSGVPDRFSGSGSGTEFTLTISSLEPEDFAVYYCMQHLEYPITFGAGTKLEIKEQKLISEEDLGSGEDLKNVFPPEVAVFEPSKAEIAHTQKATLVCLATGFYPDHVELSWWVNGKEVHSGVCTDPQPLKEQPALNDSRYCLSSRLRVSATFWQNPRNHFRCQVQFYGLSENDEWTQDRAKPVTQIVSAEAWGRADCGITSASYHQGVLSATILYEILLGKATLYAVLVSALVLMAMVKRKDSRG
TCR alpha: EVQLVESGGGLVKPGGSLKLSCAASGYTFTSYVMHWVRQAPGKGLEWIGYINPYNDGTKYNEKFQGRVTISSDKSISTAYMELSSLRSEDTAMYYCARGTYYYGTRVFDYWGQGTLVTVSSEQKLISEEDLGSGIQNPDPAVYQLRDSKSSDKSVCLFTDFDSQTNVSQSKDSDVYITDKCVLDMRSMDFKSNSAVAWSNKSDFACANAFNNSIIPEDTFFPSSDVPCDVKLVEKSFETDTNLNFQNLSVIGFRILLLKVAGFNLLMTLRLWSS
notes: also called 022817-L08
